Reference: patent publication US10077303B2, “Anti-neurotensin antibodies and uses thereof” (INSERM (INSTITUT NATIONAL DE LA SANTÉ ET DE LA RECHERCHE …, priority 2014, dated 2018)

Key:
LNM-R cells [1] = assay: cisplatin test, LNM-R tumor xenograft; format: in vivo, NMRI nu/nu mice; details: for day the experiment was stopped because of the large size of the tumors: control group stopped after 21
Protocol: (§1) FIG. 6. […] A) LNM-R or R-SI NTSR1 cells (LNM-R expressing sh-RNA for NTSR1) were injected into the left and the right flanks of the mice, respectively; Mice were treated with PBS, or 15 mg/kg NTSp27-7.4 every other day and/or with cisplatin 1 mg/kg day 1, 3, 5, 7, 15, 17, and 19. At day one, 9 and 8 mice were randomized for the size of the LNM-R tumors; reaching approximately 95 mm3 on average. Mice were treated every other day and measured every day. B) Tumor growth rate from day one generated by R-SI NTSR1 cells (right flank).
(§2) Cisplatin test, 1×10^6 LNM-R cells and 1×10^6R-SI NTSR1 were subcutaneously inoculated in NMRI nu/nu mice, LNM-R in the left flank and R-SI NTSR1 in the right flank. When tumors generated by LNM-R reached an average volume of 95 mm^3, mice were randomized in 5 groups of 8 to 10 mice. Group 1 was administered with PBS, group 2 with antibody NTSp27-7.4 (i.p. every other day, 15 mg/kg) for total of 13 times and group 3 with mouse IgG (i.p. every other day, 15 mg/kg). Group 4 was administered with PBS and cisplatin (1 mg/kg at day 1,3 5 7, 15, 17, and 19) and groups 5 with antibody NTSp27-7.4 (i.p. every other day, 15 mg/kg) and cisplatin (1 mg/kg at day 1,3 5 7, 15, 17, and 19). The volume of tumor was measured every other day.

R-SI NTSR1 cells [2] = assay: cisplatin test, R-SI NTSR1 tumor xenograft; format: in vivo, NMRI nu/nu mice
Protocol: as §1, §2

A2780 cells = assay: A2780 ovarian cancer tumor xenograft, cisplatin response; format: in vivo, NMRI-Nude Foxn1 mice
Protocol: FIG. 8. […] 3 million A2780 cells were injected into mice. When tumors generated by A2780 reached an average volume of 200 mm^3, mice were randomized into 4 groups. Mice were treated with PBS, or 15 mg/kg NTSp27-7.4 every other day and/or with cisplatin 1 mg/kg day at 1, 3, 5, and 7 days. Results are the mean of 8 to 12 mice performed in two different independent experiments.
A2780 cells (3×10^6) cells were combined with […] and 50 μl […]® (a gelatinous protein mixture), then injected subcutaneously into the right hind leg of 4 week old female NMRI-Nude Foxn1 mice. Treatment started when tumors reached approximately 200 mm3. Tumor volume was calculated every two days by using the following equation: tumor volume (mm3)=4/3×π×(length/2)×(width/2)×(height/2). After treatment, the mice were sacrificed and tumors were fixed in formalin.

[3] = test system: Hep 3B, HepR1a, and HepR2b cells; assay: collagen type 1 invasion assay of hepatocellular carcinoma cells; format: cell-based; details: Hep-R1a and Hep-R1b; 3.75 μg/ml purified antibody
Protocol: FIG. 3. […] A) Migration in a collagen 1 invasion assay of Hep 3B, HepR1a, and HepR2b cells. Results represent the mean±SEM of 3 experiments. Results are expressed as a % on invasive cells of control cells, Hep3B. […] B) Migration in a collagen type 1 invasion assay of Hep 3B, HepR1a, and HepR2b cells in a presence of 3.75 μg/ml of purified NTSp27-7.4 or mouse IgG. Results represent the mean±SEM of 3 experiments. Results are expressed as a % on invasive cells of respective control cells.
(§3) The cell culture insert (8 μm, Beckton Dickinson®) was coated with type I collagen (100 μl/well, 4×10^2 μg/ml, Sigma®) at 37° C. 24 h before the assay. 1 million MCF, NTS-h, Hep 3B, HepR1a, and HepR2b cells were seeded in the insert with 250 μl of serum free medium in presence or absence of 7 μg antibodies NTSp27-7.4. Outside the insert, 750 μl medium with 10% FCS was added in the well as chemoattractant. After 48 h of incubation, the non-invading cells and collagen are removed from the upper surface of the membrane by scrubbing with a cotton swab. Invading cells (those adhering to the bottom surface of the membrane) were fixed and stained with the Kwif diff stain kit(Thermo®) and the number of stained cells were counted with an inverted microscope at 200× magnification.

MDA-MB 231 cells = assay: MDA-MB 231 breast cancer tumor xenograft; format: in vivo, NMRI nu/nu mice; details: 15 mg/kg i.p. every other day
Protocol: (§4) FIG. 5. NTSp27-7.4 inhibits experimental tumor growth generated by breast cancer cell lines. Tumor growth generated by MDA-MB 231 cells (left flank) (A), and MDA Si2 cells (right flank) (B), and treated for 24 days with PBS, or 15 mg/kg […]. At day one, 7, and 6 mice were randomized for the size of MDA-MB231 tumors size; reaching approximately 50 mm3. Mice were treated and measured every other day.
(§5) 3×10^6 MDA-MB 231 cells and 3×10^6 MDA si2 were subcutaneously inoculated in 100 μl of […]® (a gelatinous protein mixture) the left flank and the right flank of the NMRI nu/nu mice, respectively. When tumors generated by MDA reached an average volume of 50 mm^3, mice were randomized in 2 groups, then administered antibody NTSpP27-7.4 (i.p. every other day, 15 mg/kg) for total 12 times. PBS was used as the vehicle control.

MDA si2 cells = assay: MDA Si2 tumor xenograft (same mice, right flank); format: in vivo, NMRI nu/nu mice; details: MDA Si2 tumors (NTSR1-)
Protocol: as §4, §5

[4] = test system: MCF-7 cell overexpressing NTS; assay: invasion test on type I collagen of MCF-7 cells overexpressing NTS (NTS-h); format: cell-based; details: NTS-overexpressing clones vs MCF-7; EGF 100 ng/mL; 7 μg antibody
Protocol: The experiment was repeated twice.
as §3

R-SI NTSR1 cells [5] = assay: R-SI NTSR1 tumor xenograft (same mice, right flank); format: in vivo, NMRI nu/nu mice; details: non-expressing NTSR1 tumors, 15 mg/kg
Protocol: (§6) FIG. 4. NTSp27-7.4 inhibits experimental tumor growth generated by lung cancer cell lines. A) LNM-R or R-SI NTSR1 cells (LNM-R expressing sh-RNA for NTSR1) were injected into the left and the right flank of the mice, respectively. Here is shown an example of a mouse from each group after 15 days of treatment. B) Tumor growth generated by LNM-R cells (left flank) xenografted into nude mice and treated for 15 days with PBS, or 15 mg/kg NTSp27-7.4. At day one, 10, and 8 mice were randomized on LNM-R tumors size reaching approximately 40 mm3 for control and NTSp27-7.4 group, respectively. Mice were treated every other day and measured every day. C) Tumor growth generated by R-SI NTSR1 cells (right flank) xenografted into the same mice. D and E) Tumor growth rate from day one generated by LNM-R cells (left flank) and R-SI NTSR1 cells (right flank).
(§7) 1×10^6 LNM-R cells and 1×10^6R-SI NTSR1 were subcutaneously inoculated in NMRI nu/nu mice, LNM-R in the left flank and R-SI NTSR1 in the right flank. When tumors generated by LNM-R reached an average volume of 40 mm^3, mice were randomized in 2 groups, then administered antibody NTSpP27-7.4 (i.p. every other day, 15 mg/kg) for total 8 times. PBS was used as the vehicle control. The volume of tumor was measured daily.

LNM-R cells [6] = assay: LNM-R lung cancer tumor xenograft; format: in vivo, NMRI nu/nu mice; details: 15 mg/kg i.p. every other day
Protocol: as §6, §7

Molecule: N.N.[Cl][Pt][Cl] [cisplatin, reference compound]
- LNM-R tumor growth rate as compared to PBS treated mice (LNM-R cells [1]; cisplatin 1 mg/kg day 1,3,5,7,15,17,19, IgG 15 mg/kg every other day): not altered
- day the experiment was stopped because of the large size of the tumors (LNM-R cells [1]): 23 days
- R-SI NTSR1 tumor size (R-SI NTSR1 cells [2]; cisplatin 1 mg/kg, growth ratio to D1): decreased
- A2780 tumor growth rates as compared to PBS treated mice (A2780 cells; cisplatin 1 mg/kg at 1, 3, 5, and 7 days): slightly but not significantly altered

B1: NTSp27-7.4: NTS neutralizing monoclonal antibody from hybridoma clone 7.4; VH SEQ ID NO:1, VL SEQ ID NO:5 (antibody, V domains shown)
VH: DVKLVESGGGLVKLGGSLKLSCAASGFTFSGYYMSWVRQTPEKRLELVAAINNYGDNTNYPDTVKGRFSVSRDNAKNTLYLEMNSLKSEDTALYYCARLANYANQRGAMDYWGQGTSVTVSS
VL: DIQMTHTTSSLSASLGDRVTISCRASQDIANYLNWYQQKPDGTVTLLIYYTSRLHSGVPSRFSGSGSGTDYSLTINNLDQEDIATYFCQQGYTLPPTFGGGTKLEIK
modifications: Synthetic VH sequence; Synthetic VL sequence
- invasive rate of the cells expressing NTS and NTSR1 [3]: reduced
- MDA-MB231 tumor growth as compared to PBS treated animals (MDA-MB 231 cells; 24 days): strong reduction
- tumor growth rate from D1 (MDA-MB 231 cells; PBS 4.4±0.33): 1.5±0.1 fold
- tumor doubling time after 24 days of treatment (MDA-MB 231 cells; control 11.63±1): 52.8 ± 17.6 days
- tumor sizes, growth rate and doubling time vs PBS (MDA si2 cells): no difference
- induction of invasiveness induced or not by EGF [4]: inhibited
- LNM-R tumor size (LNM-R cells [1]; antibody 15 mg/kg every other day, with or without cisplatin 1 mg/kg): smaller
- day the experiment was stopped because of the large size of the tumors (LNM-R cells [1]): 25 days
- size of the tumor and growth rate vs PBS (R-SI NTSR1 cells [5]): not different
- tumor size smaller as compared to controls (LNM-R cells [6]; 15 days, vs PBS): 2.6 times
- tumor growth from D1 (LNM-R cells [6]; PBS 24.68±4.05): 8.22±1.84 fold
- tumor doubling time after 16 days of treatment (LNM-R cells [6]; control 3.43±0.34): 5.11 ± 0.38 days
- R-SI NTSR1 tumor growth rate (R-SI NTSR1 cells [2]; combined treatment of NTSp27-7.4 with cisplatin): do not change
- A2780 tumor size (A2780 cells; antibody 15 mg/kg every other day, with or without cisplatin 1 mg/kg, PBS 2062±371.5, p=0.054 vs PBS, p=0.0058 vs cisplatin): 1280±262.0 mm^3
